Values joined by “and” are separate entries in the source; they are usually repeats but may differ in a detail not shown here. Equal entries are not always repeated. Where no end group is shown, it is not given here. [ ]: non-standard residue; d: D form. The star is where a group is joined. DOTA = O=C(O)CN1CCN(CC(=O)O)CCN(CC(=O)*)CCN(CC(=O)O)CC1; Hyp = O=C(O)[C@@H]1C[C@@H](O)CN1; Cha = N[C@@H](CC1CCCCC1)C(=O)O; Ahx = NCCCCCC(=O)O
B1: [3,4-prolyl-3,4-3H(N)] [Leu^9, Des-Arg^10]Kallidin (peptide)
peptide: KRPPGFSPL
modifications: also: 3,4-prolyl-3,4-3H(N) tritium label on proline
notes: Radioligand from American Radiolabeled Chemicals (ART1609) or Perkin Elmer (NET1096250UC); also called BK-ANT-ARC; BK-ANT-PE
B2: Peptide 1: D-Pra-Ahx-Lys-Arg-Pro-Hyp-Gly-Cha-Ser-Pro-(D-Phe) (peptide)
peptide: KRPXGXSPF
modifications: N-terminal D-Pra-Ahx- (D-propargylglycine, 6-aminohexanoic acid); Hyp (hydroxyproline) at position 4; Cha (beta-cyclohexylalanine) at position 6; D-Phe at position 9
notes: Agonist-derived probe
B3: Peptide 2: DTPA-Ahx-Lys-Arg-Pro-Hyp-Gly-Cha-Ser-Pro-(D-Phe) (peptide)
peptide: KRPXGXSPF
modifications: N-terminal DTPA-Ahx- (printed 'DPA-Ahx' in Table 4); Hyp at position 4; Cha at position 6; D-Phe at position 9
B4: Peptide 12: Ga-DOTA-Ahx-Lys-Arg-Pro-Hyp-Gly-Cha-Ser-Pro-(D-Phe) (peptide)
peptide: KRPXGXSPF
modifications: N-terminal Ga-DOTA-Ahx-; Hyp at position 4; Cha at position 6; D-Phe at position 9
notes: 68Ga-labelled in vivo
B5: Peptide 3: Ga-DOTA-PEG2-Lys-Arg-Pro-Hyp-Gly-Cha-Ser-Pro-Leu (peptide)
peptide: KRPXGXSPL
modifications: N-terminal Ga-DOTA-PEG2- (PEG2 = 3-[2-(2-aminoethoxyl)ethoxy]propanoic acid); Hyp at position 4; Cha at position 6
notes: 68Ga-labelled in the in vivo imaging; also called Ga-68 Peptide 3
B6: H-Lys-Arg-Pro-Pro-Gly-Phe-Ser-Pro-Leu-OH (BK-ANT, Bachem H-2582) (peptide)
peptide: H-KRPPGFSPL-OH
notes: Unlabelled control B1R antagonist bought from Bachem; also called Lys[Leu^8]-des-Arg^9-BK; [Leu^9,des-Arg^10]kallidin

What was measured:
[1] = target: T1, human bradykinin B1 receptor (human, UniProt P46663 1-353); experiment: saturation radioligand binding, membranes of CHO-K1::hB1R cells
T1 construct: whole, on cells; Assays were run on cell membrane preparations (50 ug/well), not on intact cells; HEK293T::GFP::hB1R membranes appear only in the saturation assay; also called hB1R; BDKRB1
T1 sequence (looked up): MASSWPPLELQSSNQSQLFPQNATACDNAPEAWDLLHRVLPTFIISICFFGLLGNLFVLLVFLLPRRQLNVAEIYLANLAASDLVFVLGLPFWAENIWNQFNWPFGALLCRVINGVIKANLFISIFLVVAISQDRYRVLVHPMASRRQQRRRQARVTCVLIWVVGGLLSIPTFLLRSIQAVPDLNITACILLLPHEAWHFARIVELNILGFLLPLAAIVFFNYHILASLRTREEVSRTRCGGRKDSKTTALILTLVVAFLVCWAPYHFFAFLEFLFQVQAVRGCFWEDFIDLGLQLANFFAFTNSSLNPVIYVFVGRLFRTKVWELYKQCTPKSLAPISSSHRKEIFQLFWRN
Method: (§1) Assays were done using 96-well MultiScreenHTS with glass fiber filter and PVDF support obtained from Millipore Corp, Billerica, Mass. (cat. no. MSFB N6B, lot no. R8AN42424). Wells of the MultiScreen plate were pre-soaked with 0.5% of cold Poly(ethyleneimine) (PEI) (cat. no. P3143, Sigma-Aldrich, St. Louis, Mo.) for 30 minutes. Afterward, wells were washed once with 50 mM of Tris-HCl pH 7.4. Total volume per wells was 200 μL. […] The assay buffer contained 50 mM of Tris-HCl pH 7.4 and 5 mM of MgCl₂. The Multiscreen plate was incubated at 27° C. for 15 minutes. The assay was stopped by suctioning the reaction solution through the PVDF membrane filter, and washing the filter with ice cold 50 mM Tris-HCl pH 7.4. Scintillation fluid was added to each well, and the radioactivity was measured using a MicroBeta Trilux Microplate Scintillation and Luminescence Counter (Perkin Elmer Inc., Shelton, Conn.). Graphpad Prism 5 was used to calculate the affinity constant (Kd) and the receptor concentration (Bmax).

[2] = target: T1, human bradykinin B1 receptor; experiment: saturation radioligand binding, membranes of HEK293T::GFP::hB1R cells
Method: as §1

[3] = target: T1, human bradykinin B1 receptor; experiment: saturation radioligand binding, CHO-K1::hB1R against HEK293T::GFP::hB1R membranes
Method: as §1

[4] = target: T1, human bradykinin B1 receptor; experiment: average Ki of the competitive radioligand binding assays on hB1R membranes
Method: (§2) Competitive Binding Assays: Assays were performed using 96-well MultiScreenₘₛ with glass fiber filter and PVDF support obtained from Millipore Corp, Billerica, Mass. (cat. no. MSFB N6B, lot no. R8AN42424). Wells of the MultiScreen plate were pre-soaked with 0.5% of cold Poly(ethyleneimine) (PEI) (cat. no. P3143, Sigma-Aldrich, St. Louis, Mo.) for 30 minutes. Afterward, wells were washed once with 50 mM of Tris-HCl pH 7.4. Total volume per wells was 200 μL. […] The MultiScreen plate was then incubated at 27° C. for 15 minutes with agitation at 300 rpm. The assay was stopped by suctioning the reaction solution through the bottom PVDF membrane filter and discarded. The membranes were washed 7x with 150 μL/well of cold 50 mM Tris-HCl pH 7.4. Radioactivity was counted using 1450 MicroBeta TriLux—Microplate Scintillation and Luminescence Counter (Perkin Elmer Inc., Shelton, Conn.).

[5] = target: T1, human bradykinin B1 receptor; experiment: competitive radioligand binding; hot ligand BK-ANT-ARC 4.6 nM; CHO-K1 hB1R membranes
Method: as §2

[6] = target: T1, human bradykinin B1 receptor; experiment: competitive radioligand binding; hot ligand BK-AG-ARC 12.5 nM; CHO-K1 hB1R membranes
Method: as §2

[7] = target: T1, human bradykinin B1 receptor; experiment: competitive radioligand binding; hot ligand BK-ANT-ARC 12.5 nM; CHO-K1 hB1R membranes
Method: as §2

[8] = target: T1, human bradykinin B1 receptor; experiment: average Ki of the competitive radioligand binding assays on hB1R membranes (single assay)
Method: as §2

[9] = target: T1, human bradykinin B1 receptor; experiment: assay not described at this place; competitive binding presumed
[10] = target: T1, human bradykinin B1 receptor; experiment: competitive radioligand binding; hot ligand BK-ANT-ARC 4.5 nM; CHO-K1 hB1R membranes
Method: as §2

Binder | Ki [4] [nM] | Ki [5] | other results
B1 | – | – | Kd [1]: 0.574 nM; Kd [2]: 3.46 nM; fold lower Kd in CHO-K1::hB1R cells than in HEK293T::GFP::hB1R cells [3]: 6 fold
KRPXGXSPL (N-terminal Ga-DOTA-Ahx-; Hyp at position 4; Cha at position 6) [Peptide 10: Ga-DOTA-Ahx-Lys-Arg-Pro-Hyp-Gly-Cha-Ser-Pro-Leu] | 27.8 | 22.3 nM and 29 nM and 32 nM | –
B2 | 32.2 | – | Ki [6]: 10.9 nM; Ki [7]: 74.6 nM
B3 | – | – | Ki [6]: 131 nM; Ki [8]: 131 nM
B4 | 25.4 | 19.7 nM and 29.1 nM and 27.5 nM | –
B5 | 16 | 13.3 nM and 17.1 nM and 17.6 nM and 16 nM | –
{DOTA-Ahx}-KRPPGFSPL (also: Ga complex of DOTA (natGa in assays, 68Ga in vivo), also called P03083) [Peptide 4: Ga-DOTA-Ahx-Lys-Arg-Pro-Pro-Gly-Phe-Ser-Pro-Leu] | 2.55 | 2.47 nM and 3.57 nM and 2.23 nM and 1.93 nM | Ki [9]: 12.4 nM
B6 | – | 0.49 nM | –
{DOTA}-GGKRP[Hyp]G[Cha]SPL (also: Ga loaded in DOTA, 68Ga-labelled in vivo) [Peptide 8: Ga-DOTA-Gly-Gly-Lys-Arg-Pro-Hyp-Gly-Cha-Ser-Pro-Leu] | 11.4 | 13.5 nM | Ki [10]: 8.63 nM and 12.1 nM

Reference: patent US20150238641A1 (BRITISH COLUMBIA CANCER AGENCY BRANCH, published 2015)
